The values that follow come from article PMC8983717, “Cryo-EM structures of a LptDE transporter in complex with Pro-macrobodies offer insight into lipopolysaccharide translocation” (Nature Communications, 2022).

The target of data set [1] is T1, N. gonorrhoeae LptD (1-801)-3C-His10 and LptE (1-159)-AVI complex, biotinylated (Neisseria gonorrhoeae ATCC 700825 / FA …, UniProt Q5F651;Q5F9V6, biotin on the AVI tag (in vitro, BirA)).
T1 construct: signal peptide in the construct; LptD of N. gonorrhoeae (Zopf) Trevisan (ATCC 700825), residues 1-801; LptE of N. gonorrhoeae (Zopf) Trevisan (ATCC 700825), residues 1-159; Used for sybody generation and GCI; also called biotinylated NgLptDE; Biotinylated protein; source: E. coli SF100, purified as the NgLptDE complex, biotinylated in vitro with BirA, second SEC; monomeric peak; not shown: AVI, …
The data set is described as follows: grating-coupled interferometry (GCI); biotinylated NgLptDE immobilised on a 4PCP-S (streptavidin) chip at 600-700 pg/mm2; 20 °C; Tris 25 mM pH 7.5, NaCl 300 mM, DDM 0.1%; 8 concentrations (2-fold dilutions) in duplicate; 1:1 model. As to conditions: both partners purified.

Data set [2] concerns the molecule itself. The data set is described as follows: cryo-EM structure; subset of 80,140 dimeric particles of the NgLptDE-PMb51-PMb21 sample; map at 5.27 Å; pseudo-2-fold symmetry.

B1: sybody 51 (Sb51), synthetic nanobody against NgLptDE (VHH)
VHH: QVQLVESGGGSVQAGGSLRLSCAASGSISSITYLGWFRQAPGKEREGVAALATYYGHTYYADSVKGRFTVSLDNAKNTVYLQMNSLKPEDTALYYCAAAYSGIWTPLGVWATYEYWGQGTQVTV
notes: as the sybody moiety of m6 (PMb51), PDB 7OMM, up to the conserved C-terminus VTV
Turning to B1, the binding result in data set [1] is listed as “binds”.

B2: Neisseria gonorrhoeae LptDE complex (NgLptDE), wild-type full-length LptD and LptE with a C-terminal hexa-histidine tag (complex, N. gonorrhoeae)
chain 1: ADTVAAEEADGRVAEGGAQGASESAQASDLTLGSTCLFCSNESGSPERTEAAVQGSGEASVPEDYTRIVADRMEGQSKVKVRAEGSVIIERDGAVLNTDWADYDQSGDTVTVGDRFALQQDGTLIRGETLTYNLDQQTGEAHNVRMETEQGGRRLQSVSRTAEMLGEGRYKLTETQFNTCSAGDAGWYVKAASVEADRGKGIGVAKHAAFVFGGVPLFYTPWADFPLDGNRKSGLLVPSVSAGSDGVSLSVPYYFNLAPNFDATFAPGIIGERGATFDGQIRYLRPDYSGQTDLTWLPHDKKSGRNNRYQAKWQHRHDISDTLQAGVDFNQVSDSGYYRDFYGGEEIAGNVNLNRRVWLDYGGRAAGGSLNAGLSVQKYQTLANQSGYKDEPYAIMPRLSADWHKNAGRAQIGVSAQFTRFSHDGRQDGSRLVVYPGIKWDFSNSWGYVRPKLGLHATYYSLDSFGGKASRSVGRVLPVVNIDGGTTFERNTRLFGGGVVQTIEPRLFYNYIPAKSQNDLPNFDSSESSFGYGQLFRENLYYGNDRINAANSLSTAVQSRILDGATGEERFRAGIGQKFYFKDDAVMLDGSVGKNPRSRSDWVAFASGGIGGRFTLDSSIHYNQNDKRAEHYAVGAGYRPAPGKVLNARYKYGRNEKIYLQADGSYFYDKLSQLDLSAQWPLTRNLSAVVRYNYGFEAKKPIEMLAGAEYKSSCGCWGAGVYAQRYVTGENTYKNAVFFSLQLKDLSSVGRNPAGRMDVAVPGYIPAHSLSAGRNKRP
chain 2: CGFHLKGADGISPPLTYRSWHIEGGQALQFPLETALYQASGRVDDAAGAQMTLRIDSVSQNKETYTVTRAAVINEYLLILTVEAQVLKRGEPVGKPMTVSVRRILDYADNEILGKQEEEETLWAEMRQDVAEQIVRRLTFLKAE
notes: LptD of N. gonorrhoeae, wild-type full length, UniProt Q5F651; LptE of N. gonorrhoeae, UniProt Q5F9V6; it is put on LptE here; Monomeric and dimeric SEC peaks were kept apart; the monomer was used for the complexes with PMbs; also called LptDE transporter; source: E. coli SF100, pBAD22A, purified from the outer-membrane fraction (LDAO, NiNTA, exchange to LMNG, SEC); also on E. coli SF100 cells …
In the case of B2, the “stoichiometry N” value in data set [2] came out at 2.

B3: N. gonorrhoeae LptD (NgLptD), as the chain of the purified NgLptDE complex (natural protein, UniProt Q5F651 24-801, looked up)
chain: ADTVAAEEADGRVAEGGAQGASESAQASDLTLGSTCLFCSNESGSPERTEAAVQGSGEASVPEDYTRIVADRMEGQSKVKVRAEGSVIIERDGAVLNTDWADYDQSGDTVTVGDRFALQQDGTLIRGETLTYNLDQQTGEAHNVRMETEQGGRRLQSVSRTAEMLGEGRYKLTETQFNTCSAGDAGWYVKAASVEADRGKGIGVAKHAAFVFGGVPLFYTPWADFPLDGNRKSGLLVPSVSAGSDGVSLSVPYYFNLAPNFDATFAPGIIGERGATFDGQIRYLRPDYSGQTDLTWLPHDKKSGRNNRYQAKWQHRHDISDTLQAGVDFNQVSDSGYYRDFYGGEEIAGNVNLNRRVWLDYGGRAAGGSLNAGLSVQKYQTLANQSGYKDEPYAIMPRLSADWHKNAGRAQIGVSAQFTRFSHDGRQDGSRLVVYPGIKWDFSNSWGYVRPKLGLHATYYSLDSFGGKASRSVGRVLPVVNIDGGTTFERNTRLFGGGVVQTIEPRLFYNYIPAKSQNDLPNFDSSESSFGYGQLFRENLYYGNDRINAANSLSTAVQSRILDGATGEERFRAGIGQKFYFKDDAVMLDGSVGKNPRSRSDWVAFASGGIGGRFTLDSSIHYNQNDKRAEHYAVGAGYRPAPGKVLNARYKYGRNEKIYLQADGSYFYDKLSQLDLSAQWPLTRNLSAVVRYNYGFEAKKPIEMLAGAEYKSSCGCWGAGVYAQRYVTGENTYKNAVFFSLQLKDLSSVGRNPAGRMDVAVPGYIPAHSLSAGRNKRP
notes: LptD of N. gonorrhoeae, wild-type full length, UniProt Q5F651; The LptD chain of m1; source: E. coli SF100, co-expressed with LptE, purified as the NgLptDE complex (NiNTA, SEC, LMNG)
Take B3: in data set [2], the binding result is reported as “binds”.
